The Immune Epitope Database (IEDB)

How the values were obtained:
HLA-A*68:02 = test: IEDB peptide-MHC binding, cellular MHC/competitive/fluorescence; ≥ and ≤ were set here for values at or beyond the usual limits of such assays
HLA-A*02:01 = test: IEDB peptide-MHC binding, purified MHC/competitive/radioactivity; ≥ and ≤ were set here for values at or beyond the usual limits of such assays
HLA-A*02:06 = test: as above
HLA-A*02:03 = test: as above
HLA-A*02:02 = test: as above
[1] = source organism: Vaccinia virus WR
[2] = source organism: Hepacivirus hominis
[3] = source organism: Mammarenavirus brazilense
[4] = source organism: Influenza A virus
[5] = source organism: Mammarenavirus machupoense
[6] = source organism: Mammarenavirus lassaense

## DMLLNVQTLI
HLA-A*68:02; [1]
  IC50: 6690 nM
HLA-A*02:01; [1]
  IC50: 80 nM
HLA-A*02:06; [1]
  IC50: 291 nM
HLA-A*02:03; [1]
  IC50: 161 nM
HLA-A*02:02; [1]
  IC50: 42 nM

## LLVQYGAKI
HLA-A*68:02; [1]
  IC50: 6430 nM
HLA-A*02:01; [1]
  IC50: 1770 nM
HLA-A*02:06; [1]
  IC50: 1140 nM
HLA-A*02:03; [1]
  IC50: 358 nM
HLA-A*02:02; [1]
  IC50: 206 nM

## MMQNDYGGM
HLA-A*68:02; [1]
  IC50: ≥ 70000 nM
HLA-A*02:01; [1]
  IC50: 1280 nM
HLA-A*02:06; [1]
  IC50: 1660 nM
HLA-A*02:03; [1]
  IC50: 2740 nM
HLA-A*02:02; [1]
  IC50: 1080 nM

## ALYGVWPLLL
HLA-A*68:02; [2]
  IC50: 20600 nM
HLA-A*02:01; [2]
  IC50: 9 nM
HLA-A*02:06; [2]
  IC50: 166 nM
HLA-A*02:03; [2]
  IC50: 7.5 nM
HLA-A*02:02; [2]
  IC50: 8.9 nM

## MLCLLLLSV
HLA-A*68:02; [2]
  IC50: 15400 nM
HLA-A*02:01; [2]
  IC50: 142 nM
HLA-A*02:06; [2]
  IC50: 326 nM
HLA-A*02:03; [2]
  IC50: 263 nM
HLA-A*02:02; [2]
  IC50: 210 nM

## VLTHGLASV
HLA-A*68:02; source organism: SARS-CoV1
  IC50: 5420 nM
HLA-A*02:01; source organism: SARS-CoV1
  IC50: 3.7 nM
HLA-A*02:06; source organism: SARS-CoV1
  IC50: 1.4 nM
HLA-A*02:03; source organism: SARS-CoV1
  IC50: 0.3 nM
HLA-A*02:02; source organism: SARS-CoV1
  IC50: 9.6 nM

## KIVQLPKRGV
HLA-A*68:02; [1]
  IC50: 62600 nM
HLA-A*02:01; [1]
  IC50: 2240 nM
HLA-A*02:06; [1]
  IC50: 2250 nM
HLA-A*02:03; [1]
  IC50: 51 nM
HLA-A*02:02; [1]
  IC50: 4120 nM

## VQFSILNNPV
HLA-A*68:02; [1]
  IC50: 39700 nM
HLA-A*02:01; [1]
  IC50: 1910 nM
HLA-A*02:06; [1]
  IC50: 186 nM
HLA-A*02:03; [1]
  IC50: 369 nM
HLA-A*02:02; [1]
  IC50: 131 nM

## YNYSLSAAV
HLA-A*68:02; [3]
  IC50: ≥ 70000 nM
HLA-A*02:01; [3]
  IC50: 539 nM
HLA-A*02:06; [3]
  IC50: 88 nM
HLA-A*02:03; [3]
  IC50: 67 nM
HLA-A*02:02; [3]
  IC50: 79 nM

## YLIRALTL
HLA-A*68:02; [4]
  IC50: 9520 nM
HLA-A*02:01; [4]
  IC50: 607 nM
HLA-A*02:06; [4]
  IC50: 2520 nM
HLA-A*02:03; [4]
  IC50: 145 nM
HLA-A*02:02; [4]
  IC50: 216 nM

## GLSQFTHTV
HLA-A*68:02; [5]
  IC50: 15100 nM
HLA-A*02:01; [5]
  IC50: 18 nM
HLA-A*02:06; [5]
  IC50: 332 nM
HLA-A*02:03; [5]
  IC50: 7.7 nM
HLA-A*02:02; [5]
  IC50: 5.3 nM

## MLDDFSAGA
HLA-A*68:02; [1]
  IC50: 10500 nM
HLA-A*02:01; [1]
  IC50: 0.43 nM
HLA-A*02:06; [1]
  IC50: 114 nM
HLA-A*02:03; [1]
  IC50: 73 nM
HLA-A*02:02; [1]
  IC50: 68 nM

## GIIITVGMLI
HLA-A*68:02; [1]
  IC50: 9200 nM
HLA-A*02:01; [1]
  IC50: 945 nM
HLA-A*02:06; [1]
  IC50: 1130 nM
HLA-A*02:03; [1]
  IC50: 595 nM
HLA-A*02:02; [1]
  IC50: 3580 nM

## KLLNMRDLIV
HLA-A*68:02; [1]
  IC50: ≥ 70000 nM
HLA-A*02:01; [1]
  IC50: 1.1 nM
HLA-A*02:06; [1]
  IC50: 2.8 nM
HLA-A*02:03; [1]
  IC50: 29 nM
HLA-A*02:02; [1]
  IC50: 194 nM

## NLAPHLLLIV
HLA-A*68:02; source organism: SARS-CoV1
  IC50: 7240 nM
HLA-A*02:01; source organism: SARS-CoV1
  IC50: 206 nM
HLA-A*02:06; source organism: SARS-CoV1
  IC50: 125 nM
HLA-A*02:03; source organism: SARS-CoV1
  IC50: 1.1 nM
HLA-A*02:02; source organism: SARS-CoV1
  IC50: 5.1 nM

## LLMEGLKLLS
HLA-A*68:02; [6]
  IC50: 8470 nM
HLA-A*02:01; [6]
  IC50: 12 nM
HLA-A*02:06; [6]
  IC50: 1750 nM
HLA-A*02:03; [6]
  IC50: 40 nM
HLA-A*02:02; [6]
  IC50: 78 nM

## RLLDLSSWFT
HLA-A*68:02; [2]
  IC50: 11100 nM
HLA-A*02:01; [2]
  IC50: 20 nM
HLA-A*02:06; [2]
  IC50: 82 nM
HLA-A*02:03; [2]
  IC50: 316 nM
HLA-A*02:02; [2]
  IC50: 303 nM

## LLNVQTLISL
HLA-A*68:02; [1]
  IC50: 14500 nM
HLA-A*02:01; [1]
  IC50: 73 nM
HLA-A*02:06; [1]
  IC50: 97 nM
HLA-A*02:03; [1]
  IC50: 16 nM
HLA-A*02:02; [1]
  IC50: 24 nM

## LVFLILCFT
HLA-A*68:02; source organism: SARS-CoV1
  IC50: 6680 nM
HLA-A*02:01; source organism: SARS-CoV1
  IC50: 507 nM
HLA-A*02:06; source organism: SARS-CoV1
  IC50: 1370 nM
HLA-A*02:03; source organism: SARS-CoV1
  IC50: 1850 nM
HLA-A*02:02; source organism: SARS-CoV1
  IC50: 2490 nM

## YLVTRNADV
HLA-A*68:02; [2]
  IC50: ≥ 70000 nM
HLA-A*02:01; [2]
  IC50: 296 nM
HLA-A*02:06; [2]
  IC50: 4320 nM
HLA-A*02:03; [2]
  IC50: 62 nM
HLA-A*02:02; [2]
  IC50: 55 nM

## ALLSCLTTPA
HLA-A*68:02; [2]
  IC50: ≥ 70000 nM
HLA-A*02:01; [2]
  IC50: 161 nM
HLA-A*02:06; [2]
  IC50: 231 nM
HLA-A*02:03; [2]
  IC50: 211 nM
HLA-A*02:02; [2]
  IC50: 439 nM

## KILSDENYL
HLA-A*68:02; [1]
  IC50: 46600 nM
HLA-A*02:01; [1]
  IC50: 121 nM
HLA-A*02:06; [1]
  IC50: 28 nM
HLA-A*02:03; [1]
  IC50: 1170 nM
HLA-A*02:02; [1]
  IC50: 196 nM

## ALVFLILCFT
HLA-A*68:02; source organism: SARS-CoV1
  IC50: 10500 nM
HLA-A*02:01; source organism: SARS-CoV1
  IC50: 161 nM
HLA-A*02:06; source organism: SARS-CoV1
  IC50: 229 nM
HLA-A*02:03; source organism: SARS-CoV1
  IC50: 1120 nM
HLA-A*02:02; source organism: SARS-CoV1
  IC50: 209 nM

## LLLLSVGVGI
HLA-A*68:02; [2]
  IC50: 52600 nM
HLA-A*02:01; [2]
  IC50: 764 nM
HLA-A*02:06; [2]
  IC50: 714 nM
HLA-A*02:03; [2]
  IC50: 605 nM
HLA-A*02:02; [2]
  IC50: 2570 nM

## FLFLAWIMLL
HLA-A*68:02; source organism: SARS-CoV1
  IC50: 6180 nM
HLA-A*02:01; source organism: SARS-CoV1
  IC50: 80 nM
HLA-A*02:06; source organism: SARS-CoV1
  IC50: 1010 nM
HLA-A*02:03; source organism: SARS-CoV1
  IC50: 56 nM
HLA-A*02:02; source organism: SARS-CoV1
  IC50: 19 nM

## LLWDYMCIS
HLA-A*68:02; [6]
  IC50: 12700 nM
HLA-A*02:01; [6]
  IC50: 45 nM
HLA-A*02:06; [6]
  IC50: 408 nM
HLA-A*02:03; [6]
  IC50: 597 nM
HLA-A*02:02; [6]
  IC50: 147 nM

## RIKSVLDII
HLA-A*68:02; [1]
  IC50: 14500 nM
HLA-A*02:01; [1]
  IC50: 4700 nM
HLA-A*02:06; [1]
  IC50: 2080 nM
HLA-A*02:03; [1]
  IC50: 18 nM
HLA-A*02:02; [1]
  IC50: 111 nM

## ALLRMCALV
HLA-A*68:02; [2]
  IC50: 6490 nM
HLA-A*02:01; [2]
  IC50: 34 nM
HLA-A*02:06; [2]
  IC50: 417 nM
HLA-A*02:03; [2]
  IC50: 65 nM
HLA-A*02:02; [2]
  IC50: 83 nM

## VLALYSPPLI
HLA-A*68:02; [1]
  IC50: 14400 nM
HLA-A*02:01; [1]
  IC50: 55 nM
HLA-A*02:06; [1]
  IC50: 868 nM
HLA-A*02:03; [1]
  IC50: 101 nM
HLA-A*02:02; [1]
  IC50: 16 nM

## ALVLLILMTA
HLA-A*68:02; source organism: SARS-CoV1
  IC50: 12500 nM
HLA-A*02:01; source organism: SARS-CoV1
  IC50: 325 nM
HLA-A*02:06; source organism: SARS-CoV1
  IC50: 61 nM
HLA-A*02:03; source organism: SARS-CoV1
  IC50: 51 nM
HLA-A*02:02; source organism: SARS-CoV1
  IC50: 67 nM

## ALEQYGIENT
HLA-A*68:02; [1]
  IC50: 21800 nM
HLA-A*02:01; [1]
  IC50: 1450 nM
HLA-A*02:06; [1]
  IC50: 1270 nM
HLA-A*02:03; [1]
  IC50: 2160 nM
HLA-A*02:02; [1]
  IC50: 3150 nM

## TLLGCWSFVL
HLA-A*68:02; [2]
  IC50: 26600 nM
HLA-A*02:01; [2]
  IC50: 17 nM
HLA-A*02:06; [2]
  IC50: 250 nM
HLA-A*02:03; [2]
  IC50: 864 nM
HLA-A*02:02; [2]
  IC50: 80 nM

## SLVTSFLLM
HLA-A*68:02; source organism: SARS-CoV1
  IC50: 50100 nM
HLA-A*02:01; source organism: SARS-CoV1
  IC50: 271 nM
HLA-A*02:06; source organism: SARS-CoV1
  IC50: 257 nM
HLA-A*02:03; source organism: SARS-CoV1
  IC50: 49 nM
HLA-A*02:02; source organism: SARS-CoV1
  IC50: 66 nM

## SILSLETVKM
HLA-A*68:02; [1]
  IC50: 11100 nM
HLA-A*02:01; [1]
  IC50: 1310 nM
HLA-A*02:06; [1]
  IC50: 806 nM
HLA-A*02:03; [1]
  IC50: 455 nM
HLA-A*02:02; [1]
  IC50: 203 nM

## YLLGDSDSVA
HLA-A*68:02; [1]
  IC50: 10700 nM
HLA-A*02:01; [1]
  IC50: 20 nM
HLA-A*02:06; [1]
  IC50: 135 nM
HLA-A*02:03; [1]
  IC50: 23 nM
HLA-A*02:02; [1]
  IC50: 2 nM
